From the supplement of paper PMC9170038

Key:
MS2 coat protein [1] = assay: apparent KD of MS2 coat protein, switch OFF state (with FMN for OFF switches, without FMN for ON switches); designed switch direction (-1 OFF switch, 1 ON switch): -1; higher = weaker reporter binding; conditions: FMN input: 0 or 200 uM; Eterna round: R93 (includes R88 designs)
In short: (§1)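 Apparent KD was obtained for each design as the median of normalised binding-curve fits over its clusters. RNA switches transcribed on-chip from Illumina sequencing clusters were titrated with SNAP-549-labelled MS2 coat protein (twofold steps, 0.7 or 1.5 nM to 3 µM) in 100 mM Tris-HCl pH 7.5, 80 mM KCl, 4 mM MgCl2, without or with constant ligand.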

MS2 coat protein [2] = assay: apparent KD of MS2 coat protein, switch ON state; designed switch direction (-1 OFF switch, 1 ON switch): -1; higher = weaker reporter binding; conditions: FMN input: 0 or 200 uM; Eterna round: R93 (includes R88 designs)
In short: as §1

Sequence | apparent KD of MS2 coat protein (MS2 coat protein [1]) | apparent KD of MS2 coat protein (MS2 coat protein [2])
GCUGUCGUAGGAUAUACAUGAGGAUCACCCAUGUGAGAGAAAAAAGUGAGAAAGAAAAGUAGAAGGACGGUAGG [salish99-ex3-105] | 43.1 nM | 37.5 nM
GGUUGGCGAGGAUAUACAUGAGGAUCACCCAUGUGAGAGAAAAAAGUAAGAAAGAAAAGUAGAAGGCGCUGACG [salish99-ex3-51] | 87.8 nM | 30.7 nM
AAGAAUGAAGGAUAUACAUGAGGAUCACCCAUGUAAAAGAAAGAGGGAAAAGAGAAAAGUAGAAGGUCAAAGAA [Ptolemy XI Alexander II] | 20.4 nM | 19.8 nM
AAAAAGGCAGGAUAUACAUGAGGAUCACCCAUGUAGUUGACAAAAAAGAGUCAACAGUGUAGAAGGGCCAAAAA [Exclusion3-cac1] | 22.1 nM | 18.1 nM
AGUCAUACAGGAUAUACAUGAGGAUCACCCAUGUUUAUCCUAAAAAGGUGAUCCUCAUGUAGAAGGGUAUGACA [EX3 210: Super Stable 10] | 16.6 nM | 12.4 nM
AAAAAACAUGAGGAUCACCCAUGUUAGGAUAUGCUAUGGAAAAUAAAAAUAAAACAUAGCAGAAGGAACAAAAA [Denovo 2] | 36.9 nM | 18.6 nM
AACAGUACAGGAUAUACAUGAGGAUCACCCAUGUAAAAAUAAAAGGGAAUCUCAAAAAGUAGAAGGGUACUGGA [Moding Maslow revisited (73) 13] | 36.3 nM | 72.5 nM
AACAGGACAGGAUAUACAUGAGGAUCACCCAUGUGAGAAUUCAGUAGAUUGCCACAGAGUAGAAGGGUCCUGGA [Ruby 100] | 102 nM | 58.5 nM
AAGAACCUAGGAUAUACAUGAGGAUCACCCAUGUAAAAGAAAGAAAGGGAAAAGAAAAGUAGAAGGAGGAAGAA [Heqakheperre Shoshenq II] | 15.7 nM | 12.1 nM
AACAGUACAGGAUAUACAUGAGGAUCACCCAUGUGAAAAUUAAGUGGAGAACCACAAUGUAGAAGGGUACUGGA [Mat - Exclusion 3 - Eli mod - D48] | 57.3 nM | 133 nM
AUAAAACAUGAGGAUCACCCAUGUAAGGAUAUGCGAAAAUAAAAUAAAAUAAAAUAAAGCAGAAGGUACAAAAA [Insulation 1] | 37.3 nM | 29.1 nM
AACUGACAUGAGGAUCACCCAUGUCAGGAUAUGCAUCUUAGGAAAAAAAAACUAAGAUGCAGAAGGGACAUGGA [Design 4: Super Stable 4] | 46.2 nM | 23.9 nM
CUCAAGUAAGGAUAUGAAAGAAAAGAAGAGAAAGAAAAGAAUCAGAAGGUACAUGAGGAUCACCCAUGUAAGAA [EteRNA is fun!] | 23.1 nM | 30.3 nM
CCCUAGUCAGGAUAUACAAACAUGUCAAAAGACGUGAAAAAACAUGAGGAUCACCCAUGUAGAAGGGACUAGGG [Mat - Exclusion 2 - JL mod - D19] | 15.2 nM | 15.3 nM
AAAAAACAUGAGGAUCACCCAUGUGAGGAUAUGUACGAAAAUAAAUAAAAAUAAAAGUACAGAAGGCACAAAAA [66%, Wbt, 2] | 41.2 nM | 35.7 nM
AAAUCGGCAGGAUAUACAUGAAAAUUAAAAAAAAAAAAAAAACAUGAGGAUCACCCAUGUAGAAGGGUCAAAAA [Exclusion 2 - Omei 3] | 75.2 nM | 77.9 nM
AAAAAAGGAGGAUAUACGAACAUGUCGAAAGACGUGAAGGGACAUGAGGAUCACCCAUGUAGAAGGUUUAAAAA [Mat - Exclusion 2 - JL mod - D85] | 19.2 nM | 35.9 nM
AAGGUACGAGGAUAUACAUAGAUACAGACACAUGUACAUGUACAUGAGGAUCACCCAUGUAGAAGGCGUAUAUG [Mat - Same state - Mayanna Mod - D109] | 73.9 nM | 67.5 nM
AAAAAAGGAGGAUAUACGAACAUGUCGAAAGACGUGAAGGGACAUGAGGAUCACCCAUGUAGAAGGUCUAAAAA [Mat - Exclusion 2 - JL mod - D87] | 29.9 nM | 30.7 nM
AUCGAUCGAGGAUAUACAUGAGGAUCACCCAUGUAAAAAAAAAAAAAGGCCUCAGGAUGUAGAAGGCGACGCAA [JR_Exc003_Sub403] | 18.7 nM | 18.5 nM
CUCAAGUAAGGAUAUCUAAGAAAAGAAGAGAAAGAAAAGAAAGAGAAGGUACAUGAGGAUCACCCAUGUAAGAA [EteRNA is fun!] | 29.9 nM | 34.4 nM
AAAAAGGCAGGAUAUACGAAACAGGGAAACCUGAAAGGGAAACAUGAGGAUCACCCAUGUAGAAGGGCCAAGAA [Clint Eastwood 64% 2] | 82 nM | 48.3 nM
AAGAAGCAAGGAUAUACAUGAAAGAAAGAAAAGAAAAGAAAACAUGAGGAUCACCCAUGUAGAAGGUGCUAGAA [EteRNA is fun!] | 47.8 nM | 34.6 nM
